Test results taken from PMC7888922.

Target: sACE2_(2).v2.4-IgG1 (human) (UniProt Q9BYF1)
Experiment: BLI

Substance | Kd | koff | kon
SARS-CoV-2 RBD-N501Y (8his-tagged) (from UniProt P0DTC2 333-529) (domain or fragment) | < 0.1 nM | 0.00011 s⁻¹ | 360000 M⁻¹ s⁻¹
SARS-CoV-2 RBD-Y449K (8his-tagged) (from UniProt P0DTC2 333-529) (domain or fragment) | 0.9 nM | 0.004 s⁻¹ | 4.3e+06 M⁻¹ s⁻¹
